In PMC12796488, “Distinct structural features of Pseudomonas aeruginosa ATP synthase revealed by cryo-electron microscopy” (Nature Communications, 2025):

Biological target: the molecule itself
Assay: cryo-EM structure; purified F1Fo complex in digitonin; 10 mM MgADP and 230 uM compound #5 added, 1 h on ice before freezing; maps at 2.0-3.0 Å

B1: P. aeruginosa ATP synthase subunit c (natural protein, Pseudomonas aeruginosa, UniProt Q9HT15 1-85, looked up)
chain: METVVGLTAIAVALLIGLGALGTAIGFGLLGGKFLEGAARQPEMVPMLQVKMFIVAGLLDAVTMIGVGIALFFTFANPFVGQIAG
notes: ATP synthase subunit c of Pseudomonas aeruginosa, expressed from the whole operon (atpIBEFHAGDC) plasmid pASH20; A ring of ten copies in the cryo-EM maps; also called c subunit; c-ring; source: E. coli DK8, purified as part of the whole F1Fo complex (digitonin extraction, Talon resin, Superose 6 SEC); copies: 10
For B1, the “stoichiometry N” value was 10.
